Measured values from paper PMC2430192, “Identification of immune genes and proteins involved in the response of bovine mammary tissue to Staphylococcus aureus infection” (BMC Veterinary Research, 2008).
Values joined by “and” are separate entries in the source; they are usually repeats but may differ in a detail not shown here. Equal entries are not always repeated.

What was measured:
[1] = biological target: the molecule itself; assay: SDS-PAGE and immunoblot; 25 μl of milk whey from infected udder quarters, run under reducing conditions; detected with immunoaffinity-purified antibodies raised to rS100A12 or rPTX3
[2] = biological target: the molecule itself; assay: SDS-PAGE and immunoblot; culture supernatant of transfected Trichoplusia ni cells, reducing conditions; results not shown
[3] = biological target: the molecule itself; assay: SEC; gel permeation chromatography of purified rtnPTX3 in solution; result not shown
[4] = biological target: T1, human C1q (human, UniProt P02745 23-245; P02746 28-253; P02747 29-245); assay: ELISA; 500 ng human C1q coated on 96-well plates in PBS pH 7.4 with 1 mM CaCl2 and 1 mM MgCl2; rtnPTX3 (12.5 ng/well, two preparations) added in PBS-Tween 20, 1 h at 37°C; bound rtnPTX3 detected with rabbit antibody raised to rPTX3; conditions: both partners purified
T1 construct: Complement C1q subcomponent subunit A, human; Complement C1q subcomponent subunit B, human; Complement C1q subcomponent subunit C, human; also called C1q component of the human complement system; source: bought: Merck; copies: + +
T1 sequence (P02745 23-245, chain 1 of 3): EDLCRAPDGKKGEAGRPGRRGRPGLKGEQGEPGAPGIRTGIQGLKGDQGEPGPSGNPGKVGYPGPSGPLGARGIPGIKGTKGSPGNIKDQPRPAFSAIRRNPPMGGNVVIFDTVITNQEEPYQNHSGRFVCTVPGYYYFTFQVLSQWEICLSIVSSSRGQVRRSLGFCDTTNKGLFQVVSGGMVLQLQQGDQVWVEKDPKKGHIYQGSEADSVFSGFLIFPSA
T1 sequence (P02746 28-253, chain 2 of 3): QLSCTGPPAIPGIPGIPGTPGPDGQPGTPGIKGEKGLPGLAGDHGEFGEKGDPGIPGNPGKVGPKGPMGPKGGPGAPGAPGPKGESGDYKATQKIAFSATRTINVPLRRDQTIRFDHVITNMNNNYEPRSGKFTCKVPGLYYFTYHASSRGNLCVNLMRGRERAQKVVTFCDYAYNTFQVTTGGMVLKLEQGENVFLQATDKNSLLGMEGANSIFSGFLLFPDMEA
T1 sequence (P02747 29-245, chain 3 of 3): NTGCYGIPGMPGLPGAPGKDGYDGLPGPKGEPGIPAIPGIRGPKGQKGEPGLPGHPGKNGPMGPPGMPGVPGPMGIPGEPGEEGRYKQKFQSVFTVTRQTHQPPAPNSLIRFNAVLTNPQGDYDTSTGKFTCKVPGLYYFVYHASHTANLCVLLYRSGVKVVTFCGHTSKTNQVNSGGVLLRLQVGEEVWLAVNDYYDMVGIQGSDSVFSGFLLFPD

binding result [4] | Binder | stoichiometry N [1] | stoichiometry N [2] | stoichiometry N [3]
– | S100 calcium-binding protein A12 (S100A12), endogenous in bovine milk whey (natural protein, bovine (endogenous in milk whey), UniProt P79105 1-92, looked up, 92 amino acids, predicted size 10.7 kDa; also called calgranulin C; source: endogenous, milk whey from udder quarters infected with S. aureus) MTKLEDHLEGIINIFHQYSVRVGHFDTLNKRELKQLITKELPKTLQNTKDQPTIDKIFQDLDADKDGAVSFEEFVVLVSRVLKTAHIDIHKE | 2 and 3 | – | –
binds | Recombinant bovine PTX3 (rtnPTX3) produced in Trichoplusia ni insect cells (natural protein, UniProt Q0VCG9 18-382, looked up, predicted size of the mature protein 40.2 kDa; The vector pIEx5 supplies the signal peptide of adipokinetic hormone for secretion; A few vector-derived residues at the N-terminus cannot be excluded; Two bands of 43 and 45 kDa, possibly differing in glycosylation at N221; also called Pentraxin-3; source: Trichoplusia ni (High Five) insect cells, transiently transfected with pIEX5-PTX3, secreted …) ENSDDYELMYVNLDNEIDNGLHPTEDPTPCDCSRENSEWDKLFTMLENSQMREGMLLQATDVMLRGELQKLQAELGRLEGSLQKLCGPEAPSETRLARALDDLLQASRDAGRRLARLEDAGALRPQEEAGRALGAVLEELRRTRADLRAVQGWAASRWLPAGCETAILFPMRSKKIFASVHPVTPMKLETFSACIWVKATEVLNKTVLFSYGTKRNPYEIQLYLSYRSIMLVVGGEENRLVADAVISLGTWTHLCSTWDSKKGHMALWVNGDSVATAVDMATGHVVPEGGILQIGQEKNGCCVGGGFDETLAFSGRLTGFNIWEGVLSNEEIREAGGAESCHIRGNVVGWGVTEIQPHGGAQYVY | – | 2 | 10
– | Pentraxin-3 (PTX3), endogenous in bovine milk whey (natural protein, bovine (endogenous in milk whey), UniProt Q0VCG9 18-382, looked up, Pentraxin-3 (PTX3), bovine, secreted into milk; predicted Mw of the mature protein 40.2 kDa; one potential N-linked glycosylation site (Asn221); source: endogenous, milk whey from udder quarters infected with S. aureus) ENSDDYELMYVNLDNEIDNGLHPTEDPTPCDCSRENSEWDKLFTMLENSQMREGMLLQATDVMLRGELQKLQAELGRLEGSLQKLCGPEAPSETRLARALDDLLQASRDAGRRLARLEDAGALRPQEEAGRALGAVLEELRRTRADLRAVQGWAASRWLPAGCETAILFPMRSKKIFASVHPVTPMKLETFSACIWVKATEVLNKTVLFSYGTKRNPYEIQLYLSYRSIMLVVGGEENRLVADAVISLGTWTHLCSTWDSKKGHMALWVNGDSVATAVDMATGHVVPEGGILQIGQEKNGCCVGGGFDETLAFSGRLTGFNIWEGVLSNEEIREAGGAESCHIRGNVVGWGVTEIQPHGGAQYVY | 2 | – | –
